Measured values from paper PMC3259531.

Target: Gdown1 (in vitro, construct not stated) (UniProt P0CAP2)

Chain of Gdown1 (in vitro, construct not stated) (from UniProt P0CAP2-1 1-368) (natural protein) (P0CAP2 whole entry): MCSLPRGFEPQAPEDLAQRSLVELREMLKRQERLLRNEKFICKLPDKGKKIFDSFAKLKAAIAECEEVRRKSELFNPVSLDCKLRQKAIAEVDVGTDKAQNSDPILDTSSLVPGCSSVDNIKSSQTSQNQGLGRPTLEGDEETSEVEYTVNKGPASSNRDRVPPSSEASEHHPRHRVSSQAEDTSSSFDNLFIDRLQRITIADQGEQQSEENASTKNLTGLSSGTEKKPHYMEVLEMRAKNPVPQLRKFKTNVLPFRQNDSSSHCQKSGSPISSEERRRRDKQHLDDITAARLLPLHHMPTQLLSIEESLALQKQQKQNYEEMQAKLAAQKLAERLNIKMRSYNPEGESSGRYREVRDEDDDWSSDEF

- stoichiometry N: 2
Substance: Gdown1 (in vitro, construct not stated) (from UniProt P0CAP2-1 1-368) (natural protein)
